According to patent publication US7858298 (PROGENICS PHARMACEUTICALS, dated 2010):

Columns and labels:
[1] = target: T1, recombinant soluble human CD4 (human, UniProt P01730 26-396); assay: flow cytometry on human CCR5-bearing murine L1.2 cells (data not shown)
T1 construct: also called sCD4; soluble CD4

[2] = target: T2, complex formed between sCD4 and biotinylated HIV-1LAI gp120 (HIV-1 LAI (BRU); human, UniProt P03377 33-516; P01730 26-396); assay: as above
T2 construct: also called b-LAI:sCD4

B1: human CCR5 expressed on the cell surface (receptor)
chain: not shown
notes: whole, on cells; also called C-C CKR-5; CKR-5
[1]
  binding result: no binding
[2]
  binding result: no binding
